Assay results from publication PMC9210341 (2022).
Several values for one entry are separate records, joined by “and”; a condition that tells them apart may be missing. Equal entries are not always repeated.

Target: SARS-CoV-2 prototype receptor binding domain (residues 319-541) (SARS-CoV-2, UniProt P0DTC2 319-541)
Test: SPR

B1: equine angiotensin converting enzyme 2 (residues 19-615) (receptor)
chain: STTEDLAKTFLEKFNSEAEELSHQSSLASWSYNTNITDENVQKMNEAGARWSAFYEEQCKLAKTYPLEEIQNLTVKRQLQALQQSGSSVLSADKSKRLNEILNTMSTIYSTGKVCNPSNPQECLLLEPGLDAIMENSKDYNQRLWAWEGWRSEVGKQLRPLYEEYVVLKNEMARANNYEDYGDYWRGDYEAEGPSGYDYSRDQLIEDVERTFAEIKPLYEHLHAYVRAKLMDTYPSHINPTGCLPAHLLGDMWGRFWTNLYSLTVPFGQKPNIDVTDAMVDQSWDAKRIFEEAEKFFVSVGLPNMTQGFWENSMLTEPGDGRKVVCHPTAWDLGKGDFRIKMCTKVTMDDFLTAHHEMGHIQYDMAYAVQPYLLRNGANEGFHEAVGEIMSLSAATPNHLKAIGLLPPDFYEDSETEINFLLKQALTIVGTLPFTYMLEKWRWMVFKGEIPKEEWMKKWWEMKREIVGVVEPVPHDETYCDPAALFHVANDYSFIRYYTRTIYQFQFQEALCQTAKHEGPLHKCDISNSTEAGQKLLQMLSLGKSEPWTLALERIVGVKNMDVRPLLNYFEPLFTWLKDQNKNSFVGWSTNWSPYAD
Kd: 87.7 nM and 200 nM
